According to paper PMC2666074 (Biochemistry, 2008):
Each block holds one binder with its values, some of them ahead of it.

Tests used:
[1] = target: T1, S100A6 (rabbit, intact) (rabbit, UniProt P30801 1-90); assay: ITC
[2] = target: T1, S100A6 (rabbit, intact); assay: NMR titration
[3] = target: T1, S100A6 (rabbit, intact); assay: native MS
[4] = target: the molecule itself; assay: cross-linking

Kd [1]: 20 µM
Binder: SEGLMNVLKKIYEDG [SIP(189–203)]

binding result [1]: binds
B1: SIP(178–229), SGS domain of SIP (domain or fragment)
chain: EKPSYDTEADPSEGLMNVLKKIYEDGDDDMKRTINKAWVESREKQAREDTEF

stoichiometry N [2]: 2 SIP per S100A6 dimer | stoichiometry N [3]: 2 SIP(189–219) per S100A6 dimer | Kd [1]: 5 µM
Binder: SEGLMNVLKKIYEDGDDDMKRTINKAWVESR (peptide, UniProt Q9CXW3 189-219, looked up) [SIP(189–219)]
binding result [4]: binds
